Test results published in publication PMC9482650, “Quantitative fragmentomics allow affinity mapping of interactomes” (Nature Communications, 2022).

B1: SLC22A3, O75751 (peptide)
chain: KKTPVSRSHL
B2: SLC5A12, Q1EHB4 (peptide)
chain: NNMAFETTHF

The binders below were run against T1, APBA1_1, Q02410 (assay: holdup assay). Settings: plain residues with an end cap or a label only (N-terminal biotin on a linker: ado-ado).
T1 sequence (Q02410 651-752, limits assumed, looked up): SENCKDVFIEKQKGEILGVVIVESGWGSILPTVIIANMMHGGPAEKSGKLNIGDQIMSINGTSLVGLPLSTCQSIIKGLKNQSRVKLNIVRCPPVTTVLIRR
Parameters: key: below the threshold = too weak to quantify, mostly under pKd 3.1 to 4

Binder | pKd
B1 | below the threshold
B2 | below the threshold

The binders below were run against T2, APBA1_2, Q02410 (assay: holdup assay). Settings: plain residues with an end cap or a label only (N-terminal biotin on a linker: ado-ado).
T2 sequence (Q02410 742-832, limits assumed, looked up): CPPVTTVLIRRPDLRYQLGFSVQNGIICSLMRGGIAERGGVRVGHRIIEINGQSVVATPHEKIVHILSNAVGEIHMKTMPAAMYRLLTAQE
Parameters: key: below the threshold = too weak to quantify, mostly under pKd 3.1 to 4

Binder | pKd
B1 | 3.77
B2 | 3.62

Each binder was assayed against T3, ARHGAP21, Q5T5U3 (assay: holdup assay). Settings: plain residues with an end cap or a label only (N-terminal biotin on a linker: ado-ado).
T3 sequence (Q5T5U3 45-169, limits assumed, looked up): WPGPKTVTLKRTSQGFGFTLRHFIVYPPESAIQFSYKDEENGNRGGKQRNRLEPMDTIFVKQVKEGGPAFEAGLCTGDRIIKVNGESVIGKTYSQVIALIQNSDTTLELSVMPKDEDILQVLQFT
Parameters: key: below the threshold = too weak to quantify, mostly under pKd 3.1 to 4

Binder | pKd
B1 | 3.97
B2 | 3.94

Each binder was assayed against T4, ARHGEF11, O15085 (assay: holdup assay). Settings: plain residues with an end cap or a label only (N-terminal biotin on a linker: ado-ado).
T4 sequence (O15085 42-136, limits assumed, looked up): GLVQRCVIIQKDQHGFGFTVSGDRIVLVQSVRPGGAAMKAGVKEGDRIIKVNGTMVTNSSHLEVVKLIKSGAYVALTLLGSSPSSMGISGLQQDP
Parameters: key: below the threshold = too weak to quantify, mostly under pKd 3.1 to 4

Binder | pKd
B1 | 3.56
B2 | 3.63

These binders were tested against DLG2_3, Q15700 (assay: holdup assay). Settings: plain residues with an end cap or a label only (N-terminal biotin on a linker: ado-ado).
Parameters: key: below the threshold = too weak to quantify, mostly under pKd 3.1 to 4

Binder | pKd
B1 | below the threshold
B2 | 3.7

The binders below were run against DLG4_1, P78352 (assay: holdup assay). Settings: plain residues with an end cap or a label only (N-terminal biotin on a linker: ado-ado).
Parameters: key: below the threshold = too weak to quantify, mostly under pKd 3.1 to 4

DLG4_1, P78352, sequence (P78352 62-152): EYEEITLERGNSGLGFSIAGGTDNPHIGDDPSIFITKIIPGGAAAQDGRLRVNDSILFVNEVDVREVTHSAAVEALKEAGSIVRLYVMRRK

Binder | pKd
B1 | 3.55
B2 | below the threshold

Each binder was assayed against FRMPD2_1, Q68DX3 (assay: holdup assay). Settings: plain residues with an end cap or a label only (N-terminal biotin on a linker: ado-ado).
Parameters: key: below the threshold = too weak to quantify, mostly under pKd 3.1 to 4

FRMPD2_1, Q68DX3, sequence (Q68DX3 770-861): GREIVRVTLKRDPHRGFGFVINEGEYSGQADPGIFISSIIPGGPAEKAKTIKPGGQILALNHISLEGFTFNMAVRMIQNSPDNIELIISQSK

Binder | pKd
B1 | below the threshold
B2 | below the threshold

Each binder was assayed against FRMPD2_2, Q68DX3 (assay: holdup assay). Settings: plain residues with an end cap or a label only (N-terminal biotin on a linker: ado-ado).
Parameters: key: below the threshold = too weak to quantify, mostly under pKd 3.1 to 4

FRMPD2_2, Q68DX3, sequence (Q68DX3 944-1038): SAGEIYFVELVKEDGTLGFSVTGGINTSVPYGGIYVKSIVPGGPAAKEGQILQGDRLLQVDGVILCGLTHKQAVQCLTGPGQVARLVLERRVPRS

Binder | pKd
B1 | below the threshold
B2 | below the threshold

These binders were tested against GRID2IP_1, A4D2P6 (assay: holdup assay). Settings: plain residues with an end cap or a label only (N-terminal biotin on a linker: ado-ado).
Parameters: key: below the threshold = too weak to quantify, mostly under pKd 3.1 to 4

GRID2IP_1, A4D2P6, sequence (A4D2P6 1-87): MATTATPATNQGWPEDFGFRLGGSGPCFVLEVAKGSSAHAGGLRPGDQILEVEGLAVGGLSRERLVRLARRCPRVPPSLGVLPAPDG

Binder | pKd
B1 | below the threshold
B2 | below the threshold

The binders below were run against Inadl_2, Q8NI35 (assay: holdup assay). Settings: plain residues with an end cap or a label only (N-terminal biotin on a linker: ado-ado).
Parameters: key: below the threshold = too weak to quantify, mostly under pKd 3.1 to 4

Inadl_2, Q8NI35, sequence (Q8NI35 238-335): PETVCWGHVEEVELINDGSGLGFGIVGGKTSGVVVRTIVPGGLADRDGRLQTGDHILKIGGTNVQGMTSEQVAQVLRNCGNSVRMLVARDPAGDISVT

Binder | pKd
B1 | below the threshold
B2 | below the threshold

Each binder was assayed against Inadl_4, Q8NI35 (assay: holdup assay). Settings: plain residues with an end cap or a label only (N-terminal biotin on a linker: ado-ado).
Parameters: key: below the threshold = too weak to quantify, mostly under pKd 3.1 to 4

Inadl_4, Q8NI35, sequence (Q8NI35 547-651): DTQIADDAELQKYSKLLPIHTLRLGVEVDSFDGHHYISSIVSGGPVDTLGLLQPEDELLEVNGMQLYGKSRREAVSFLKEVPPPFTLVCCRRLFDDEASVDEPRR

Binder | pKd
B1 | below the threshold
B2 | below the threshold

The binders below were run against Inadl_8, Q8NI35 (assay: holdup assay). Settings: plain residues with an end cap or a label only (N-terminal biotin on a linker: ado-ado).
Parameters: key: below the threshold = too weak to quantify, mostly under pKd 3.1 to 4

Inadl_8, Q8NI35, sequence (Q8NI35 1425-1530): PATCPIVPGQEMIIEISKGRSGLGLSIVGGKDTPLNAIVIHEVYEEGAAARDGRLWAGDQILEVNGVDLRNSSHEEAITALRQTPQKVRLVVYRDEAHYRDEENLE

Binder | pKd
B1 | below the threshold
B2 | below the threshold

What follows are binders tested against LDB3, O75112 (assay: holdup assay). Settings: plain residues with an end cap or a label only (N-terminal biotin on a linker: ado-ado).
Parameters: key: below the threshold = too weak to quantify, mostly under pKd 3.1 to 4

LDB3, O75112, sequence (O75112 1-94): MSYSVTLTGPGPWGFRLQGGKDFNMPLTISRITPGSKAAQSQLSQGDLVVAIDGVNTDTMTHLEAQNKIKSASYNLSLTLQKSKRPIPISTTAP

Binder | pKd
B1 | below the threshold
B2 | below the threshold

Each binder was assayed against T5, LIN7C, Q9NUP9 (assay: holdup assay). Settings: plain residues with an end cap or a label only (N-terminal biotin on a linker: ado-ado).
T5 sequence (Q9NUP9 88-185, limits assumed, looked up): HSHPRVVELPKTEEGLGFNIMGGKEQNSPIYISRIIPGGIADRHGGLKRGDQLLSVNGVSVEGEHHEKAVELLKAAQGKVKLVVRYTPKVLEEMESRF
Parameters: key: below the threshold = too weak to quantify, mostly under pKd 3.1 to 4

Binder | pKd
B1 | below the threshold
B2 | below the threshold

What follows are binders tested against T6, LNX2_3, Q8N448 (assay: holdup assay). Settings: plain residues with an end cap or a label only (N-terminal biotin on a linker: ado-ado).
T6 sequence (Q8N448 463-564, limits assumed, looked up): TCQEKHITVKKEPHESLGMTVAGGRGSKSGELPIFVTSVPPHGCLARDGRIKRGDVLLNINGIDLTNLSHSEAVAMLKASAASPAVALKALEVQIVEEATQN
Parameters: key: below the threshold = too weak to quantify, mostly under pKd 3.1 to 4

Binder | pKd
B1 | below the threshold
B2 | below the threshold

Each binder was assayed against T7, LRRC7, Q96NW7 (assay: holdup assay). Settings: plain residues with an end cap or a label only (N-terminal biotin on a linker: ado-ado).
T7 sequence (Q96NW7 1440-1537, limits assumed, looked up): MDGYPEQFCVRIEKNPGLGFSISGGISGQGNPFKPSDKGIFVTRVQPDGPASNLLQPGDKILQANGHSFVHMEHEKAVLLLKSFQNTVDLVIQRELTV
Parameters: key: below the threshold = too weak to quantify, mostly under pKd 3.1 to 4

Binder | pKd
B1 | below the threshold
B2 | below the threshold

These binders were tested against MAGI2_3, Q86UL8 (assay: holdup assay). Settings: plain residues with an end cap or a label only (N-terminal biotin on a linker: ado-ado).
Parameters: key: below the threshold = too weak to quantify, mostly under pKd 3.1 to 4

MAGI2_3, Q86UL8, sequence (Q86UL8 600-682): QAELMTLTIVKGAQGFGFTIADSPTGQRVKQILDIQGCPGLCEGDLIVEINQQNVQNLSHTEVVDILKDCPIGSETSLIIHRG

Binder | pKd
B1 | below the threshold
B2 | below the threshold

Each binder was assayed against MAGI2_4, Q86UL8 (assay: holdup assay). Settings: plain residues with an end cap or a label only (N-terminal biotin on a linker: ado-ado).
Parameters: key: below the threshold = too weak to quantify, mostly under pKd 3.1 to 4

MAGI2_4, Q86UL8, sequence (Q86UL8 772-865): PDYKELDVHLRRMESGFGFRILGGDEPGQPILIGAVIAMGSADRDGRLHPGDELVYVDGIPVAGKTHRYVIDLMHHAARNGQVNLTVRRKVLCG

Binder | pKd
B1 | below the threshold
B2 | below the threshold

What follows are binders tested against MAGI3_2, Q5TCQ9 (assay: holdup assay). Settings: plain residues with an end cap or a label only (N-terminal biotin on a linker: ado-ado).
Parameters: key: below the threshold = too weak to quantify, mostly under pKd 3.1 to 4

MAGI3_2, Q5TCQ9, sequence (Q5TCQ9 398-503): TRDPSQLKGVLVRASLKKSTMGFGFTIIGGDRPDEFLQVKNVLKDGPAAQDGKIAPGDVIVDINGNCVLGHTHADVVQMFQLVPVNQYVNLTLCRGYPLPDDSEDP

Binder | pKd
B1 | below the threshold
B2 | below the threshold

The binders below were run against NHERF4_1, Q86UT5-2 (assay: holdup assay). Settings: plain residues with an end cap or a label only (N-terminal biotin on a linker: ado-ado).
Parameters: key: below the threshold = too weak to quantify, mostly under pKd 3.1 to 4

NHERF4_1, Q86UT5-2, sequence (Q86UT5 other isoform, or with tags, fused parts or gaps): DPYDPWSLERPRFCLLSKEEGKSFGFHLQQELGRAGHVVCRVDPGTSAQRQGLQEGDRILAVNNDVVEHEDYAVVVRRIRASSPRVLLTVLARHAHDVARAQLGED

Binder | pKd
B1 | 3.94
B2 | 4.35

Each binder was assayed against NHERF4_2, Q86UT5 (assay: holdup assay). Settings: plain residues with an end cap or a label only (N-terminal biotin on a linker: ado-ado).
Parameters: key: below the threshold = too weak to quantify, mostly under pKd 3.1 to 4

NHERF4_2, Q86UT5, sequence (Q86UT5 220-308): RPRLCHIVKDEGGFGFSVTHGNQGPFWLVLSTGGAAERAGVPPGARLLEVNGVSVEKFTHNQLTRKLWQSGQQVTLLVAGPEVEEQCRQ

Binder | pKd
B1 | below the threshold
B2 | below the threshold

What follows are binders tested against PARD3_3, Q8TEW0 (assay: holdup assay). Settings: plain residues with an end cap or a label only (N-terminal biotin on a linker: ado-ado).
Parameters: key: below the threshold = too weak to quantify, mostly under pKd 3.1 to 4

PARD3_3, Q8TEW0, sequence (Q8TEW0 582-685): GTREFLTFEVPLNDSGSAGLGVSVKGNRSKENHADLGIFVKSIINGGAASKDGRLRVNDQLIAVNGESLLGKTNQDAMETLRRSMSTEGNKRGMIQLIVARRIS

Binder | pKd
B1 | below the threshold
B2 | below the threshold

Each binder was assayed against PDLIM1, O00151 (assay: holdup assay). Settings: plain residues with an end cap or a label only (N-terminal biotin on a linker: ado-ado).
Parameters: key: below the threshold = too weak to quantify, mostly under pKd 3.1 to 4

PDLIM1, O00151, sequence (O00151 1-87): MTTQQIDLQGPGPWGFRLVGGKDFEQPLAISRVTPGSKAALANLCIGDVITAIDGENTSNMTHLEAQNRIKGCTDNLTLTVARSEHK

Binder | pKd
B1 | below the threshold
B2 | below the threshold

These binders were tested against PTPN3, P26045 (assay: holdup assay). Settings: plain residues with an end cap or a label only (N-terminal biotin on a linker: ado-ado).
Parameters: key: below the threshold = too weak to quantify, mostly under pKd 3.1 to 4

PTPN3, P26045, sequence (P26045 505-587): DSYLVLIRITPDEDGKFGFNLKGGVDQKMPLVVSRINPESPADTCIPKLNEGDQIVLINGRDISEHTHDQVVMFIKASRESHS

Binder | pKd
B1 | below the threshold
B2 | below the threshold

What follows are binders tested against T8, RAPGEF6, Q8TEU7 (assay: holdup assay). Settings: plain residues with an end cap or a label only (N-terminal biotin on a linker: ado-ado).
T8 sequence (Q8TEU7 525-625, limits assumed, looked up): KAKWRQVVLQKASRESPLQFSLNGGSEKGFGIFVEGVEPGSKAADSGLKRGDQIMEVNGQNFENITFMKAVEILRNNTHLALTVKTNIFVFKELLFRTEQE
Parameters: key: below the threshold = too weak to quantify, mostly under pKd 3.1 to 4

Binder | pKd
B1 | below the threshold
B2 | below the threshold

These binders were tested against SCRIB_2, Q14160 (assay: holdup assay). Settings: plain residues with an end cap or a label only (N-terminal biotin on a linker: ado-ado).
Parameters: key: below the threshold = too weak to quantify, mostly under pKd 3.1 to 4

SCRIB_2, Q14160, sequence (Q14160 857-960): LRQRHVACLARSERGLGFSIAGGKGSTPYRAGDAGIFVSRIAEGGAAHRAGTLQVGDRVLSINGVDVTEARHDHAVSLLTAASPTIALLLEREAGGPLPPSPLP

Binder | pKd
B1 | below the threshold
B2 | below the threshold

The binders below were run against T9, SHANK1, Q9Y566 (assay: holdup assay). Settings: plain residues with an end cap or a label only (N-terminal biotin on a linker: ado-ado).
T9 sequence (Q9Y566 658-767, limits assumed, looked up): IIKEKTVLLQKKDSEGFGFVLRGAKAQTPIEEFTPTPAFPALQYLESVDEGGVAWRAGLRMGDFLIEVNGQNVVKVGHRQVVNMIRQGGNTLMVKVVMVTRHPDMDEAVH
Parameters: key: below the threshold = too weak to quantify, mostly under pKd 3.1 to 4

Binder | pKd
B1 | 4.54
B2 | 5.81

What follows are binders tested against T10, TJP3_3, O95049 (assay: holdup assay). Settings: plain residues with an end cap or a label only (N-terminal biotin on a linker: ado-ado).
T10 sequence (O95049 375-456, limits assumed, looked up): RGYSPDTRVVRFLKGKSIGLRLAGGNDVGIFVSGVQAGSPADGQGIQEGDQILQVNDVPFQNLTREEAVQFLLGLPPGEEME
Parameters: key: below the threshold = too weak to quantify, mostly under pKd 3.1 to 4

Binder | pKd
B1 | below the threshold
B2 | below the threshold
